{"source": "paper PMC4497498", "about": "“Kv1.3 contains an alternative C-terminal ER exit motif and is recruited into COPII vesicles by Sec24a” (BMC Biochemistry, 2015)", "key": {"[1]": {"target": "T1, Sec24a^341 (Sec24a lacking the first 341 residues) (human, UniProt O95486 342-1093)", "T1 construct": "Sec24a, COPII cargo adaptor subunit, human; ~80 kDa; source: Hi5 insect cells (baculovirus), purified (HisPur Cobalt resin, Superose 6)", "T1 sequence (looked up)": "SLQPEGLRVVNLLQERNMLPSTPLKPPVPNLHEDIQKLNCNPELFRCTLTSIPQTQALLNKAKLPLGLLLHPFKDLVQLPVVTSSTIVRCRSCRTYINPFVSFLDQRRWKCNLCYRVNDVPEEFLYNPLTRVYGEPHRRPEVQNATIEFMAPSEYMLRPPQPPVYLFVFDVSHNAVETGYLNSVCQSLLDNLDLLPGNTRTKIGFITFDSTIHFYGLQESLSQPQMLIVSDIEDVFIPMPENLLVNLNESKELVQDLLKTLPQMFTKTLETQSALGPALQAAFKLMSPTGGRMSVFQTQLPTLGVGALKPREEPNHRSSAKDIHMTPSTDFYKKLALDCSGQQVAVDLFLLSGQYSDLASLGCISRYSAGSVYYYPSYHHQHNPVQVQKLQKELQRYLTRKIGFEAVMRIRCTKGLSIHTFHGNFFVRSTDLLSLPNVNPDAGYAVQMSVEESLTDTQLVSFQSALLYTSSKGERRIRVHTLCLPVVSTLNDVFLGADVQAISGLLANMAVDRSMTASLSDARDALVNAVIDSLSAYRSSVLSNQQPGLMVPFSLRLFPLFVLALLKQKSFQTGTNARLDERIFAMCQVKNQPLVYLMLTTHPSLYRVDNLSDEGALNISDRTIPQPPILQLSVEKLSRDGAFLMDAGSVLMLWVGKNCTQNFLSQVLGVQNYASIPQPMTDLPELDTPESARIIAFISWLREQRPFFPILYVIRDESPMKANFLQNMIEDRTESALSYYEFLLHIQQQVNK", "assay": "membrane flotation assay; 15 ug Sec24a^341 incubated with 15 ug Kv1.3 proteoliposomes (DOPC:DOPS 95:5) in 25 mM Tris, 150 mM NaCl, 160 mM KOAc, 1 mM MgOAc, pH 7.5, 30 % sucrose, 32 °C for 1 h; overlaid with 25 % and 0 % sucrose, 200,000 g for 1 h at 4 °C; fractions read by Western blot", "details": "both partners purified"}, "[2]": {"target": "the molecule itself", "assay": "native gel or EMSA + other: negative stain electron microscopy; purified Kv1.3 in Fos-12 or amphipol A8-35 on a 4-16 % native gel; negative stain EM with 2D class averages of Kv1.3 in A8-35; tetramer"}}, "data": [{"binder": "Kv1.3 (mouse Shaker-type voltage-gated potassium channel subfamily member 3), recombinant, His6-tagged (natural protein, UniProt P16390 1-528, looked up, phosphorylated, sites not stated (non-dephosphorylated tetramers were used for reconstitution), Kv1.3, mouse; wild type cDNA cut from Kv1.3-pcDNA3 at the Nco and Kpn sites and ligated into pFastbac HT; Integral membrane protein; a monomer runs at ~65 kDa; No TEV cleavage of the tag is described; also called Kv1.3 tetramers; Kv1.3 proteoliposomes; source: Hi5 insect cells (baculovirus), purified (cobalt Chelating Sepharose, Superose 6) in Fos-12; reconstituted into DOPC:DOPS proteoliposomes, …) MTVVPGDHLLEPEAAGGGGGDPPQGGCGSGGGGGGCDRYEPLPPALPAAGEQDCCGERVVINISGLRFETQLKTLCQFPETLLGDPKRRMRYFDPLRNEYFFDRNRPSFDAILYYYQSGGRIRRPVNVPIDIFSEEIRFYQLGEEAMEKFREDEGFLREEERPLPRRDFQRQVWLLFEYPESSGPARGIAIVSVLVILISIVIFCLETLPEFRDEKDYPASPSQDVFEAANNSTSGAPSGASSFSDPFFVVETLCIIWFSFELLVRFFACPSKATFSRNIMNLIDIVAIIPYFITLGTELAERQGNGQQAMSLAILRVIRLVRVFRIFKLSRHSKGLQILGQTLKASMRELGLLIFFLFIGVILFSSAVYFAEADDPSSGFNSIPDAFWWAVVTMTTVGYGDMHPVTIGGKIVGSLCAIAGVLTIALPVPVIVSNFNYFYHRETEGEEQAQYMHVGSCQHLSSSAEELRKARSNSTLSKSEYMVIEEGGMNHSAFPQTPFKTGNSTATCTTNNNPNSCVNIKKIFTDV", "values": [{"measurement": "binding result", "setting": "[1]", "value": "binds"}, {"measurement": "stoichiometry N", "setting": "[2]", "value": 4}]}]}
